The target of test [1] is PR(T26A)‐RT model precursor (HIV‐1 isolate BH10). Put plainly: SEC-MALS.
Test [2] deals with PR‐RT model precursor (His6‐SUMO‐Δp6*‐PR(D25A)‐RT) (HIV‐1 isolate BH10). Description: SEC-MALS.

Two substances from publication PMC11187873 can be followed below.

“And” between values parts separate entries of the source, which are not always exact repeats. Equal values may be shown once.

On to “PR(T26A)‐RT model precursor (domain or fragment)”, for which the stoichiometry N in test [1] is 2 and 4.

Turning to “PR‐RT model precursor (His6‐SUMO‐Δp6*‐PR(D25A)‐RT) (domain or fragment)”, the stoichiometry N in test [2] was 2 and 4.
